According to patent publication US20250051449A1 (SURFACE ONCOLOGY, published 2025):
Substitutions are numbered along the chain they refer to.

T1: CD112R-hIgG4 fusion protein (human, UniProt Q6DKI7 41-171, limits assumed)
T1 construct: also called human CD112R-hIgG4; not shown: human IgG4 portion (hIgG4)
T1 sequence (looked up): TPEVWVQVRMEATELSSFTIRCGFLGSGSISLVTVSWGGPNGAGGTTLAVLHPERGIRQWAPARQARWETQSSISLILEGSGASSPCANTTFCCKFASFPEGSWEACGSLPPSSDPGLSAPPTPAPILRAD

T2: human CD112R expressed on Jurkat cells (human, UniProt Q6DKI7 1-326)
T2 construct: whole, on cells; Used for both Jurkat-CD112R OE cells and wild type Jurkat cells; which cells is said under assay; also called PVRIG; Jurkat-CD112R OE
T2 sequence (looked up): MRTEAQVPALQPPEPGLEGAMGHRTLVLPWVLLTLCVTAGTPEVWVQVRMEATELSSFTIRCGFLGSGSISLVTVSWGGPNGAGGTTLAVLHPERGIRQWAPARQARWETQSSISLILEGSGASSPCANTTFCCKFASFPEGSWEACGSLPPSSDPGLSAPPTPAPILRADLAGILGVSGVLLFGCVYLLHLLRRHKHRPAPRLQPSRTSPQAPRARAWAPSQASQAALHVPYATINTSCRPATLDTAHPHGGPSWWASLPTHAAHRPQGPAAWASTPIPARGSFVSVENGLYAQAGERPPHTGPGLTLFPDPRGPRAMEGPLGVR

B1: Antibody 46 (antibody, V domains shown)
VH: EVQLVESGGGLVQPGRSLRLSCTASGFTFGDYAMSWFRQAPGKGLEWVGFIGSKAYGGTTEYTASVKGRFTISRDGSKSIAYLQMNSLKTEDTAVYYCARGPRRYTYGMDVWGQGTTVTVSS
VL: DIQMTQSPSSLSASVGDRVTITCRASQSISSYLNWYQQKPGKAPKLLIYAASSLQSGVPSRFSGSGSGTDFTLTISSLQPEDFATYYCQQSSTPLTFGGGTKVEIK
notes: in the mouse tumor studies it was used as mouse IgG2a; also called antibody clone number 46; clone 46
B2: Antibody 32 (antibody, V domains shown)
VH: QVQLVQSGAEVKKPGSSVKVSCKASGGTFSSYAISWVRQAPGQGLEWMGGIIPISGTANYAQKFQGRVTITADESTSTAYMELSSLRSEDTAVYYCARDTGRGYTRHFWFDPWGQGTLVTVSS
VL: B1 VL with S92D, T93I, P94L, L95Y
notes: Purified as IgG; compared with an IgG1 isotype control and detected with anti-human IgG Fc; also called antibody clone number 32; parent clone 32
B3: Antibody 58 (antibody, V domains shown)
VH: B1 VH with A55F, T59E
VL: B1 VL
notes: Purified as IgG; compared with an IgG1 isotype control and detected with anti-human IgG Fc; also called antibody clone number 58; clone 58
B4: Antibody 35 (antibody, V domains shown)
VH: B2 VH with Y32A, G50N, S55V, T57I
VL: B1 VL with S92D, T93I, P94L, L95Y
notes: Purified as IgG; compared with an IgG1 isotype control and detected with anti-human IgG Fc; also called antibody clone number 35; clone 35
B5: Antibody 33 (antibody, V domains shown)
VH: B2 VH with S30G, S31N, S55P, T57I
VL: B1 VL with S92D, T93I, P94L, L95Y
notes: Purified as IgG; compared with an IgG1 isotype control and detected with anti-human IgG Fc; also called antibody clone number 33; clone 33
B6: Antibody 34 (antibody, V domains shown)
VH: B2 VH with Y32A, I52F, T57H
VL: B1 VL with S92D, T93I, P94L, L95Y
notes: Purified as IgG; compared with an IgG1 isotype control and detected with anti-human IgG Fc; also called antibody clone number 34; clone 34
B7: Antibody 36 (antibody, V domains shown)
VH: B2 VH with S30A, S31T, I52F, I54L
VL: B1 VL with S92D, T93I, P94L, L95Y
notes: Purified as IgG; compared with an IgG1 isotype control and detected with anti-human IgG Fc; also called antibody clone number 36; clone 36

What follows are binders tested against T1, CD112R-hIgG4 fusion protein (assay: blocking ELISA: coated CD112R-hIgG4, antibody, then biotinylated CD112 Fc).
Procedure: The ability of anti-CD112R antibodies to block human CD112R was also evaluated by ELISA. Briefly, 96 well Nunc Maxisorp plates were coated with 1 μg/mL of a CD112R-hIgG4 fusion protein in PBS overnight at 4° C. […] After blocking, plates were washed 6× with PBST. Next, 100 μl of anti-CD112R antibodies in PBS+1% BSA was added at a final starting concentration of 10 μg/mL, with 4-fold serial dilutions. Plates were incubated at room temperature for 1.5 hours. Next plates were washed 6× with PBST and then incubated with 1 μg/ml CD112 Fc protein (R&D Systems, Cat #9317-N2-050) that was biotinylated with a sulfo-NHS biotinylation kit (Thermo Fisher, Cat #21925) in 100 μl of PBS+1% BSA for 1 hour at room temperature. Plates were then washed 6× with PBST and subsequently incubated with streptavidin-HRP (Biolegend, Cat #405210) diluted in PBS+1% BSA according to the manufacturer recommendation for 1 hour at room temperature. Following this incubation, plates were then washed 6× with PBST and developed with TMB substrate (Life Technologies, Cat #002023). The reaction was stopped with an equal volume of stop solution (Life Technologies, Cat #SS04). Absorbance at 450 nm (O.D. 450) was measured on a SpectraMax plate reader.
Results are depicted in FIG. 2B and Table 2. […] Percent inhibition was calculated as [100−((test sample O.D. 450/Max 0.D. 450)*100%)] Max O.D. 450 was defined as absorbance at 450 nm in the absence of antibody.

| CD112 blocking max inhibition ELISA (%) | Binder |
| --- | --- |
| 97.6 | B1 |
| 75.1 | B2 |
| 97.3 | B3 |
| 81.7 | B4 |
| 78.8 | B5 |
| 80 | B6 |
| 86.2 | B7 |

These binders were tested against T2, human CD112R expressed on Jurkat cells (assay: flow cytometry competition on Jurkat-CD112R OE cells; competitor biotinylated his-tagged human CD112).
Procedure: The ability of anti-CD112R antibodies to block CD112 binding to CD112R expressing cells was evaluated. 1×10⁵ Jurkat cells (acute T cell leukemia cell line, ATCC #TIB-152) that were engineered to over-express human CD112R (Jurkat-CD112R OE) were added to each well of a 96-well V bottom plate and stained with serial dilutions of either anti-CD112R antibodies or an IgG1 isotype control (highest concentration, 10 μg/mL) for 1 hour at 4° C. Cells were washed twice with PBS+2% FCS and resuspended with biotinylated his-tagged human CD112 (3 μg/mL) (BPS Bioscience, #71234) and PE Streptavidin (5 μg/mL) (Biolegend, #405204) in PBS+2% FCS and incubated at 2 hours at 4° C. Cells were subsequently washed twice and resuspended in PBS+2% FCS. Cellular data was acquired using a LSRFortessa X-20 (BD Biosciences) and analyzed with FlowJo software (Tree Star).
Results are depicted in FIG. 2A and Table 2. […] Percent inhibition was calculated as [100−((test sample MFI/Max MFI)*100%)]

| CD112 blocking max inhibition (%) | IC50 [µg/mL] | Binder |
| --- | --- | --- |
| 95.5 | 0.0162 | B1 |
| 96 | 0.0236 | B2 |
| 96.3 | 0.0028 | B3 |
| 97.4 | 0.0162 | B4 |
| 97.4 | 0.0219 | B5 |
| 96.9 | 0.0132 | B6 |
| 97.5 | 0.0244 | B7 |
